Consider one substance from patent publication US20070098715A1.

In this test the target is Ten-M2 endogenously expressed on human cancer cell lines (SNB-19 and others) (human) (UniProt Q9NT68). Nature of the test: flow cytometry on SNB-19 cells at 4° C., Alexa647 anti-human IgG secondary. A general note: In flow cytometry, cells or beads pass a laser one at a time.

isotype control Ab (antibody): the Total Bound Fluorescence turned out to be 2.2.
